From patent US20240026407A1, “MODIFICATION OF SAPONINS” (GLAXOSMITHKLINE BIOLOGICALS SA, priority 2020, published 2024)

B1: 891 (protein, listed as Pseudarthrobacter chlorophenolicus)
chain: MNPTLPAAATVPAVGSPDAEARIRDLAESLTLEQQVQLLTGADVWSTHALPAIGLSRVVMSDGPAGVRGEDFDERHDSVSLPSSSALSATWSVDLARRYGQVLGQEARRKGVHAVLGPTINLHRSPLGGRHFECMSEDPRLTATIAAGYVAGVQSMGVGATPKHYLANEAETDRFTSDSVVDERPLRELYLAAFEDAVTEARAWLVMSSYNSINGTTASENDLLETPLSTEWGFDGVVVSDWTGVRSVDAANAHQDLEMPGPVGHWGPKLLAAVGDGRVSRTAILDKVVRILRLAARVGSLDGVSPAVTELPAPLNAPAVAREVAVRGAVLVRNKDGLLPLDPAALGSVAVSGHNAEEARTQGGGSATVMPKQNISPLEGLREALPANVAISYHRGAKVAEGLQAFPRTSLHNPVSNVPGLRVTFLAADGTELSGEDRLASHLIWFGIGIPEGAAAIRMETDWTAPSAGTHHLGLGTVGRIRLSLRGQEVFNGDIEDETEVLGAALFDPPKTVHAIETEAGERVRIEALFELPADQAIPFTAILLGEETVVADPQAEIDAAVEAARTADVAVVVVGTSAAIESEGFDRKDLDLPGHQNRLVEAVAAANPRTVVVVNSGSPVLMPWLDKVGAVLLGWFGGQEFGRAIADILLGAEEPGGRLPTTWPAALEDVPVLDTTPMDGKVVYSEGIHVGYRAWLKQQAAGGAAPALPFGYGLGYTTFELCTPHASQAVPAGKDVVVHVPVRNTGTRAGREVVQVYLERPESAVERPVRWLAGYAGTHLAAGGTSSVEVRIPGRAFAHYDGGWQVEPGTFRILVGRHSADGFQALDIDVR
B2: 816 (protein)
chain: MTASTDHLRPLLEKLSLEQKAALVQGADFWTTVPLPEIGLRALTLSDGPAGVRGPRWDEREPSLNLPSGSALAASWDVDLAYRYGAAAASEARRKGVDVVLGPTINLHRSPLGGRHFECLSEDPELTAELGAAYVRGMQENGVAATPKHYVANDSETDRFTVDVEVDERTLREVYLAPFERAVEAGAWSVMSAYNSVDGVTMTENDLLENPLNSEWGFDGVVVSDWTAVRSLDAVAAAQDLAMPGPAPAWADLVDAVHDGRVDEADIDRKVLRILLLAERVGALEGADAVAPAPLDGPAFAKEAAVEGTVLLQNSGVLPLDLAGLTKVAIIGHNAKDARTQGGGSATVLPEKVVSPLDAIRAALPAAEVSYEIGAVVQEGVAEIPLASIENPVTGGPGVRVSFHGADGTELFAEDRRATALVWFGGDAPIGASRTIVLETRYTPAESGEIQLGFAGANPGRIFVDGELVLDDVPVIEGTDLGAAFLNPPSITSAVTVEAGRAVDLRAEFTRESRGALDGALSVTLGIAPERTDPDELIARAAAAASAAEVAVVVVGTNSKVESEGYDRVDLDLPGRQDDLVRAVAATGTPTVVVVNAGSPVVLPWAGEVAAIVQGYFGGQEFGHAIAEVLTGAAEPGGRLPTTWPAALADVPVADVTPVDGRLVYAEGLHIGYRAWLKDDVQPAFPFGHGLGYTTWSWGTAQRHDDTVEVTLANTGEREGKQVVQVYAERADSTVDRPARWLVGFAVVHAEPGRTVTAVVPVPARRLAHWAGEWVVEPGAYTLRVGSSVADLPLSVEWVQA
modifications: Microbacterium hydrocarbonoxydans
B3: 827 (protein, listed as Bionectria ochroleuca)
chain: MAPTDVNAVLSKLTLEEKISILAGADFWQTVPIPEKGVPALKTSDGPNGARGETFSGGVTAACFPAACSVASTFDVDIARRIGVALGEETLTKGARCLLGPTICGHRHPLGGRNFESFSEDPFLAGTLASQSVQGIQSTGVAATMKHYAVNEQETERLSVDEIVDERTMREIYLRPFERVVKEAKPAAVMTGYNQVNGSHCDSHEFLLKQVLRGEWGWDGLVMSDWGGVNSVAESLNAGLDLEMPGPTRWRKVDEVVAAVKAGKVSEETINDRAIHVLRFLERQNCFKDPTIPPEQAVNKPEHQALIREAGSKGIVLLKNNDNVLPLTKEKARGKKIALLGLAKESLAHGGGSASLNAHYKITPWDALQEAYKGENVEFTYAKGAHTLRQLPVITKNVVDVDGKPGFTWRSYHVGESQPYNTVGGHAKSEISLLDGLNMVNTSIELEGTFTASESATYYFTLSGLGPSSVAINGTVVFEQEDNCSDPMGFLLGGVASPLVKYEFESGKQYKILLKSTPPAPVEGVDLGILEGKVGVRLGNMSASEHDKDILTEAIDLAKAADYAIVFTGHDPSWETEGQDQHSFNLPKDGSQDRLVSGVAAVNQNTIVVNSTGVAVAMPWLDEIKSLVHTWFPGQEAGNSIADVLTGERNPEGHLTCTFPKRLEDCPAYGNFPGEYNGRQLTVKYAEGVFVGYRHFDRLPAEKVNFPFGFGLSYTTFGFSDFDVKPTAAGDEWTASVKVTNTGSVKGAIAVQLYVGNSKTSPENPVKSLVSFKKVTLAAGGSAVVELPAQGRDIAFWSQQEHKWVLEAGEYNFSVGKSAGDLVATATVQVGGKTYAP
B4: 857 (protein, listed as Streptomyces venezuelae)
chain: MTETGAHTAADAARESVVEAALAKLDLDSKTRLLAGQDMWSLPALPEIGLTSLVMSDGPIGVRGVRWTADDPSVALPSPTALAAAWDPALARRAGRLLAQEARRKGVHVLLAPTVNLHRTPLGGRHFEAYSEDPLLTGAIGTGYVQGVQDGGVGTTVKHFVANDAETDRFTVDNRIAPRPLRELYLAPFEAIVKNAHPWGIMTAYNQVNGVTMTEHRHLVNEVLRGEWGFDGFNVSDWMAARSTTGDIEGGLDVAMPGPQTVYGEALAAAVRAGEVEESTVDAAVRNVLRLAARVGALEGAPPVVTDPPAAIDGDALAREIAHRGFVLVRNENGALPLKNGTVALSGAAARDARVLGGGSAQVFPEHIVSPLDGLTAALPEGALTYTIGADPSDELTPADQGFTLRAVCRDASGTVLGEGTLPNGQVQWIGDDLPAGVTHEALASIEVVGRFTPRETGEHAFGTRGLGAFRLSVDGETLFDGVQALGPETDPFEAFFGSPVERAKVVLTAGETVDVSLLHTLDKEFAAPLPAVMFSFVHLGPRRDPDELIAEAVEAARAADTAVVVVATTERVESEGFDRKDLALPGRQDDLVRAVAAANPNTVVVVNAGSPVELPWREEVAAVLLSWFPGQEGGAALADVLTGAEEPGGRLPTTWPAALADAPVTEVTPTGGELDYAEGVFIGYRAWDKAGAVPAYAFGHGLGYTTWTYESLTARPGTATVRLTNTGDRPGREVVQVYLAPVDDGVERPARWLAGFGCVEAGPGETVETEIALPRRAFEIWDEEKNDWSFVGGAYEVLAARSLTDARLSATLEV
B5: 853 (protein, listed as Clostridium oryzae)
chain: MKRDIKEIVSKMTLEEKAGLCSGLDFWHTKGVERLGVPSIMVTDGPHGLRKQDTSADHLGINDSVPATCFPSGATLACSWDRSLLQKVGTALGEECQAEGVSVILGPAANIKRSPLCGRNFEYFSEDPYLSTEMAANHIKGVQSQGVGTSLKHFAVNNQEHRRLSVDAEVDERTLREIYLASFEGAVKQSQPWTVMCSYNKVNGTYASENEYLLTSILKEEWGHEGFVMSDWGAVDRRENALKAGLELEMPSSNGIGDNRIVQAVKNGELKEEVLDKAVERLLNIIFKAVDNKKEGAVYDREQHHSLARKIAGECMVLLKNEDNILPLKKEGKIAVIGGFVDKYRYQGGGSSHIKPNKLDNAAEELKKAAKGENIVFAKGFSLDNDEVDSKLMEEAKNAAASAETAVIFAGLPDRYESEGYDRSHMRIPDNQIALINAIAEVQKNIVVVLSNGSPIEMPWIGNVKGILEAYLGGEAGAGAIADILFGEVNPSGKLAESFPKKLSDNPSYLNFPGEGDTVEYKEGLFVGYRYYDKKEVETLFPFGYGLSYTTFEYKNITVDKKNITDEEKLVVKVTVKNTGKLTGKEIVQLYVRDVESSVIRPVKELKGFEKVELAAGEEKTVEFVLDKRTFAYYNVDIKDWYVESGDFEILIGSSSKDIYLKDVVNVEGTTAVKKIYTRNSTVGDVMANPQARKLTEELLSSTFGQGTDDSENLGTDMTAMMKDMTLRSILHFGGDKSKEKELDKILEMLNK
B6: 842 (protein, listed as Nonomuraea sp.)
chain: MNLQDKASLLSGRDFWSTKPVGDVPAAVLSDGPHGVRRQTGEADHVGIHESLPATCFPPAVAVGSSWDPAVAGRLAAAVAVEARALDVQINLGPGVNIKRSPLCGRNFEYYSEDPLLTGVLAAAHVEALQAGGVGASVKHFAANNQETGRMRVSAEIDERTLREIYLPAFERVVKHARPATVMAAYNKVNGVYASQHPWLLTRVLREEWGFDGVVVSDWGAVNDRVAALKAGLDLEMPGNPANDAMIVQAVRDGELDEAVVDRSVARVRAMVRAWRPEPAAFDADAHHALARELAAECAVLLKNDGDTLPIRADVQTIAVLGPFATEPRFQGGGSSHVTPTRVDSPLEEIRRLAGDRVVTADPDDADLAIVFAGPADLDESEGYDRAGLDLPAEQVELIRATAAAARRTVVVLSNGGVVSLEGWHDEVDAILEGWLLGQAGGGAIADLLFGVAAPSGRLAETIPMRLQDTASYLNFPGEQDVVRYGEGVMVGYRYHETAGRPVRYPFGHGLTYTTFAVSDLTVRVTGDDSARVSVTVANTGRRYGKHVVQLYVATQAGPVRRPARELRAFTKVGLEPGRSTTVTFDLDARAFAYWDVKEGRWLVAPGDYTVQIGENASAVVAEETIELAGEVIARELTLDSSVGEWFAHPQVGPVLMRHVAATMTEEQRAAAAEHQDLLRMIESLPMHQFLSPMGVRLPDQAVREMMELSRRPQ

Assay: Experiment 5-1: screening of additional glucosidases for deglycosylation with purified QS-18 (0.04 mg/ml) at pH 7.5 and 30 deg C
Type: biochemical, Quillaja saponaria
Details: pH 7.5, 30 degrees C, 18 hours, LCMS/MS
Procedure: The 94 additional genes, together with positive control (DNA encoding SEQ ID No. 262) and negative control, were transformed, expressed, lysed and reacted in the same manner as described above for Experiment 4-1, except the reaction was incubated at 30 degrees C. for 18 hours.
Samples were analysed by LCMS/MS according to the procedure in Experiment 4-1.

Molecule | Experiment 5-1 % conv [%]
B1 | 74.7
B2 | 73.5
B3 | 69.2
B4 | 69.0
B5 | 67.7
B6 | 64.0

Assay: Experiment 5-2: screening of additional glucosidases for deglycosylation with QS-18 in crude bark extract (80%) at pH 6 and 35 deg C
Type: biochemical, Quillaja saponaria
Details: CBE 80%, pH 6, 35 deg C, 18 hours; UV HPLC
Procedure: A plate was lysed at pH 6 as described in Experiment 4-2. 40 uL of clarified lysate was transferred to a reaction plate
The pH of CBE was adjusted to pH 6 by dropwise addition of 2M NaOH with stirring. 160 uL of pH 6 CBE was added to each well of the reaction plate. The reaction plate was sealed and incubated at 35 deg C. with shaking for 18 hours.
The reaction plate was quenched by adding 200 uL of MeCN (2% acetic acid (AcOH), 1 mg/mL hexanophenone) to each well of the plates. The quenched reaction plate was re-sealed and incubated at 20 deg C. with shaking for 10 min. The reaction plate was then centrifuged (10 min, 4 degC).
200 uL was transferred from each well of the quenched plate to the corresponding wells of a fresh 96 well plate and sealed. The plate was analysed by UV HPLC with the method of Experiment 4-4.

Molecule | Experiment 5-2 % conv [%]
B1 | <0.5
B2 | <0.5
B3 | <0.5
B4 | <0.5
B5 | <0.5
B6 | <0.5

Assay: Experiment 5-3: screening of additional glucosidases for deglycosylation with QS-18 in treated bark extract (80%) at pH 6 and 35 deg C
Type: biochemical, Quillaja saponaria
Details: TBE 80% (QS-21 approx. 4 g/L), pH 6, 35 deg C; UV HPLC
Procedure: Experiment 5-1 was repeated, replacing CBE with Treated Bark Extract (TBE) at pH 6. TBE was prepared from CBE by PVPP treatment and concentration, to provide TBE with a QS-21 concentration of approximately 4 g/L. TBE was adjusted to pH 6 by dropwise addition of 2M NaOH with stirring.

Molecule | Experiment 5-3 % conv [%]
B1 | <0.5
B2 | <0.5
B3 | <0.5
B4 | <0.5
B5 | 2.5
B6 | <0.5
